Test results from US20050202000.
Residue numbers refer to the chain shown, from its start. Values joined by “and” are separate entries in the source; they are usually repeats but may differ in a detail not shown here. Equal values may be shown once.

T1: plasminogen, P00747
T1 chain: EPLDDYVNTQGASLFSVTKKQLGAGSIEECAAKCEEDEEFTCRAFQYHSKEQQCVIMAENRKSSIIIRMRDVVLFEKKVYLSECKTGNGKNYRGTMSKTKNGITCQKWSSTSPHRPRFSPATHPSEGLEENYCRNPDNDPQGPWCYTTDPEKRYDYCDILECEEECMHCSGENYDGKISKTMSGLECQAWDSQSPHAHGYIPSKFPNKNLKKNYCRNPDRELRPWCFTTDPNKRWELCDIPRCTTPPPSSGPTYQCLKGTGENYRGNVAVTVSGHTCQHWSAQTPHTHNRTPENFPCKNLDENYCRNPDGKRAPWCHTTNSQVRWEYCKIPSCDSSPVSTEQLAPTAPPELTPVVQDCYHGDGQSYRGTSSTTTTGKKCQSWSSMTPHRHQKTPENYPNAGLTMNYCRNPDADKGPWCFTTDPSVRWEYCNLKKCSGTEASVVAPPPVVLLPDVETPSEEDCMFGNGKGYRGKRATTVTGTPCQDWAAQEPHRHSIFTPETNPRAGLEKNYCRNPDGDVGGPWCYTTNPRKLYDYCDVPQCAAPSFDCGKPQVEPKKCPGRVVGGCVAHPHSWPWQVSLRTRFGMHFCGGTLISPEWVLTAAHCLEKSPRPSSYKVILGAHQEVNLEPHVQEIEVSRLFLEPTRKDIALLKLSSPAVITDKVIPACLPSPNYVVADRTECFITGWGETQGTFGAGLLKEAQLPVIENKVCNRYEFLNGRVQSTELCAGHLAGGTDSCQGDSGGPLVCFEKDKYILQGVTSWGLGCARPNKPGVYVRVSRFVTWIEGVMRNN

B1: KGD-Sak · plasmin complex (protein)
chain 1: SSSFDKGKYKKGDDASYFEPTGPTLMVNVTGVDGKRNELLSPRYVEFPIKPGTTLTKEKIEYYVEWALDATAYKEFRVVELDPSAKIEVTYYDKNKKKEETKSFPITEKGDVVPDLSEHIKNPGFNLITKVVIEKK
chain 2: KVYLSECKTGNGKNYRGTMSKTKNGITCQKWSSTSPHRPRFSPATHPSEGLEENYCRNPDNDPQGPWCYTTDPEKRYDYCDILECEEECMHCSGENYDGKISKTMSGLECQAWDSQSPHAHGYIPSKFPNKNLKKNYCRNPDRELRPWCFTTDPNKRWELCDIPRCTTPPPSSGPTYQCLKGTGENYRGNVAVTVSGHTCQHWSAQTPHTHNRTPENFPCKNLDENYCRNPDGKRAPWCHTTNSQVRWEYCKIPSCDSSPVSTEQLAPTAPPELTPVVQDCYHGDGQSYRGTSSTTTTGKKCQSWSSMTPHRHQKTPENYPNAGLTMNYCRNPDADKGPWCFTTDPSVRWEYCNLKKCSGTEASVVAPPPVVLLPDVETPSEEDCMFGNGKGYRGKRATTVTGTPCQDWAAQEPHRHSIFTPETNPRAGLEKNYCRNPDGDVGGPWCYTTNPRKLYDYCDVPQCAAPSFDCGKPQVEPKKCPGRVVGGCVAHPHSWPWQVSLRTRFGMHFCGGTLISPEWVLTAAHCLEKSPRPSSYKVILGAHQEVNLEPHVQEIEVSRLFLEPTRKDIALLKLSSPAVITDKVIPACLPSPNYVVADRTECFITGWGETQGTFGAGLLKEAQLPVIENKVCNRYEFLNGRVQSTELCAGHLAGGTDSCQGDSGGPLVCFEKDKYILQGVTSWGLGCARPNKPGVYVRVSRFVTWIEGVMRNN
B2: Sak · plasmin complex (protein)
chain 1: B1 chain 1 with T24Y, R36G, R43H, D111F
chain 2: B1 chain 2
B3: RGD-Sak · plasmin complex (protein)
chain 1: B1 chain 1 with K109R
chain 2: B1 chain 2

Target: T1, plasminogen, P00747

Q: How did the Kcat turn out when B1 was run?
A: Its Kcat is 1.46 s⁻¹.

Q: And the Kcat/Km?
A: The Kcat/Km was 0.1.

Q: What about the Km of the same protein?
A: The Km was 14.1 µM.

Q: B2 was tested. Which Kcat did it give?
A: Its Kcat is 1.03 s⁻¹ and 1.06 s⁻¹.

Q: What about the Kcat/Km of the same protein?
A: Its Kcat/Km is 0.16.

Q: What about the Km of the same protein?
A: Its Km is 6.42 µM and 6.51 µM.

Q: What does the source list for B3?
A: Kcat: 1.41 s⁻¹; Kcat/Km: 0.11; Km: 12.5 µM
